Measurements from article PMC5741625, “Methylation-regulated decommissioning of multimeric PP2A complexes” (Nature Communications, 2017).
Each block holds one molecule with its values, some of them ahead of it.

How the values were obtained:
[1] = target: PP2A scaffold subunit (Homo sapiens) (UniProt P30153); settings: cited from earlier work
[2] = target: T1, PP2A catalytic subunit Cα (1-309) (human, UniProt P67775 1-309); assay: crystal structure; PP2A-TIPRL complex, sitting drop, 18 °C, 0.1 M citric acid pH 5.2, 9% PEG 4000, 0.2 M sodium acetate; 3.8 Å; four copies in the asymmetric unit; settings: both partners purified
T1 construct: source: Hi-5 insect cells (baculovirus), purified (Ni-NTA, Source 15Q)
T1 sequence (P67775 whole entry): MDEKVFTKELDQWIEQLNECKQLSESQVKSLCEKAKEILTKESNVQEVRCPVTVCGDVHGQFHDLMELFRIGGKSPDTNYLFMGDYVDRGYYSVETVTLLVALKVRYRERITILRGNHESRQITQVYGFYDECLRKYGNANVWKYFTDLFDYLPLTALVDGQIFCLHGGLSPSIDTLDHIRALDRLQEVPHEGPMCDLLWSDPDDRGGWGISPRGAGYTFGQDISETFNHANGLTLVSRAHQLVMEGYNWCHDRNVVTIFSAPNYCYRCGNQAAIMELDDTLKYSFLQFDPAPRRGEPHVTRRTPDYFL

[3] = target: T2, PP2A core enzyme (Aα 8-589 and Cα 1-309) as crystallized with TIPRL (human, UniProt P30153 8-589; P67775 1-309, selenomethionine-labeled); assay: as above; settings: both partners purified
T2 construct: PP2A scaffold subunit Aα, human, residues 8-589; also called PP2A AC dimer; source: Aα: E. coli BL21(DE3); Cα: Hi-5 insect cells; assembled on glutathione resin, released by on-column thrombin cleavage, purified by ion exchange
T2 sequence (P30153 8-589, chain 1 of 2): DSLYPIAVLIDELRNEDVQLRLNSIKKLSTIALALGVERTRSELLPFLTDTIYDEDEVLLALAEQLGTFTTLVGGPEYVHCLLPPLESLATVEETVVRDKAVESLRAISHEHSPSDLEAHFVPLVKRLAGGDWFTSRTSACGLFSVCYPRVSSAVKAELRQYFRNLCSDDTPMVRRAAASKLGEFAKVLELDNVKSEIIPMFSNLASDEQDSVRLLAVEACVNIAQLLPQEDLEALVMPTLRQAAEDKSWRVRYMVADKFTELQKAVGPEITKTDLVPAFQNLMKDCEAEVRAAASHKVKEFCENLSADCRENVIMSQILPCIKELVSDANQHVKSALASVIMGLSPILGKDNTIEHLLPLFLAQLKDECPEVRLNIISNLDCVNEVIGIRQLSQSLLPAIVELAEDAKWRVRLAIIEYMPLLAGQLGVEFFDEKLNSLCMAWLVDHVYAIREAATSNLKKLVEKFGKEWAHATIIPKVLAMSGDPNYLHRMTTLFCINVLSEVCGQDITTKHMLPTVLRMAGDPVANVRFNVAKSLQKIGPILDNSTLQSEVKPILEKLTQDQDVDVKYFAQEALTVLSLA
T2 sequence (P67775 whole entry, chain 2 of 2, the tested form may be a part): as the sequence (P67775 whole entry) above

[4] = target: T3, PP2A scaffold subunit Aα (8-589), as in the crystal of the PP2A-TIPRL complex (human, UniProt P30153 8-589, selenomethionine-labeled); assay: as above; settings: both partners purified
T3 construct: PP2A scaffold subunit Aα, human, residues 8-589; also called PP2A-A; A subunit; source: E. coli BL21(DE3), purified; GST removed by thrombin
T3 sequence (P30153 8-589, one chain of several): as the sequence (P30153 8-589, chain 1 of 2) above

[5] = target: T4, GST-tagged unmethylated PP2A core enzyme (GST-Aα bound to Cα) (human, UniProt P30153 8-589; P67775 1-309); assay: BLI + pull-down; BLI: anti-GST sensors loaded with 150 nM GST-PP2A-AC dimer, TIPRL 0-30 μM, 300 s association and 300 s dissociation, 1:1 model; pull-down of titrated TIPRL by GST-tagged core enzyme on GS4B; settings: both partners purified
T4 construct: PP2A scaffold subunit Aα, human, residues 8-589; The methods also speak of full-length Aα in pGEX-2T; also called GST-PP2A core enzyme; GST-PP2A-AC dimer; source: GST-Aα: E. coli BL21(DE3), purified (glutathione resin, Source 15Q); Cα: Hi-5 insect cells (baculovirus), purified (Ni-NTA, Source 15Q)
T4 sequence (P30153 8-589, chain 1 of 2): as above
T4 sequence (P67775 whole entry, chain 2 of 2, the tested form may be a part): as the sequence (P67775 whole entry) above

[6] = target: GST-tagged methylated PP2A core enzyme (GST-Aα bound to carboxyl-methylated Cα) (human, UniProt P30153 8-589; P67775 1-309, carboxyl-methylated C-terminus (L309, the last residue of PP2Ac)); assay: cell-based or functional assay
GST-tagged methylated PP2A core enzyme (GST-Aα bound to carboxyl-methylated Cα), sequence (P30153 8-589, chain 1 of 2): as the sequence (P30153 8-589, chain 1 of 2) above
GST-tagged methylated PP2A core enzyme (GST-Aα bound to carboxyl-methylated Cα), sequence (P67775 whole entry, chain 2 of 2): as the sequence (P67775 whole entry) above

[7] = target: T1, PP2A catalytic subunit Cα (1-309); assay: not stated; Supplementary Fig. 6; TIPRL with PP2Ac or the scaffold subunit alone; settings: both partners purified
[8] = target: T5, PP2A scaffold subunit (Aα) alone, as tested against TIPRL in Supplementary Fig. 6b (human, UniProt P30153 8-589); assay: as above; settings: both partners purified
T5 construct: PP2A scaffold subunit Aα, human; Aα (8-589) is named for biochemical experiments; source: E. coli BL21(DE3), purified (glutathione resin, Source 15Q)
T5 sequence (P30153 8-589): as the sequence (P30153 8-589, chain 1 of 2) above

PP2A scaffold subunit (Homo sapiens), sequence (P30153 2-589): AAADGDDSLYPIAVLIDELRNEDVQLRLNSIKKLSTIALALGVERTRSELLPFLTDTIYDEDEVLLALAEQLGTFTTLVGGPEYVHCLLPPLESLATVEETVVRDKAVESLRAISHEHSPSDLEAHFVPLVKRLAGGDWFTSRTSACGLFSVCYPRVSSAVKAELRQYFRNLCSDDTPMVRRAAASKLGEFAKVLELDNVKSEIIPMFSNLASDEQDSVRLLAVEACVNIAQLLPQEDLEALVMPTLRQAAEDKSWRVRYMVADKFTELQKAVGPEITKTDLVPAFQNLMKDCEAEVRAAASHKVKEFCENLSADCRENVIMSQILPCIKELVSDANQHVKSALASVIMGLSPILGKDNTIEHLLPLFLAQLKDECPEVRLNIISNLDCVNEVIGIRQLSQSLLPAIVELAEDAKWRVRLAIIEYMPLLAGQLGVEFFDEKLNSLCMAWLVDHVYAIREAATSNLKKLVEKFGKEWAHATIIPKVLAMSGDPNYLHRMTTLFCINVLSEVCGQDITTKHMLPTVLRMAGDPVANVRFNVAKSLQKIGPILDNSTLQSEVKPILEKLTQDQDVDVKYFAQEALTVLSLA

Molecule: PP2Ac (from UniProt P67775)
Kd [1]: 5 nM

binding result [2]: binds
binding result [3]: binds
binding result [4]: binds
B1: mouse TIPRL (12-259) (domain or fragment, UniProt Q8BH58 12-259, looked up)
chain: DFSFGPWKLTASKTHIMKSADVEKLADELHMPSLPEMMFGDNVLRIQHGSGFGIEFNATDALRCVNNYQGMLKVACAEEWQESRTEGEHSKEVIKPYDWTYTTDYKGTLLGESLKLKVVPTTDHIDTEKLKAREQIKFFEEVLLFEDELHDHGVSSLSVKIRVMPSSFFLLLRFFLRIDGVLIRMNDTRLYHEADKTYMLREYTSRESKIANLMHVPPSLFTEPNEISQYLPIKEAVCEKLVFPERID
notes: TIPRL, mouse, residues 12-259; also called native TIPRL (12-259); source: E. coli BL21 (DE3), purified (Ni-NTA, Source 15Q, Superdex 200)

Kd [5]: ~310 nM
fold increase of the IC50 of TIPRL for phosphatase activity upon carboxylmethylation of the PP2A core enzyme [6]: ~30 fold
Kd [7]: ~600 nM
Kd [8]: ~10000 nM
B2: TIPRL (TOR signaling pathway regulator), full length, wild type (natural protein, UniProt Q8BH58 1-271, looked up)
chain: MMIHGFQSSHQDFSFGPWKLTASKTHIMKSADVEKLADELHMPSLPEMMFGDNVLRIQHGSGFGIEFNATDALRCVNNYQGMLKVACAEEWQESRTEGEHSKEVIKPYDWTYTTDYKGTLLGESLKLKVVPTTDHIDTEKLKAREQIKFFEEVLLFEDELHDHGVSSLSVKIRVMPSSFFLLLRFFLRIDGVLIRMNDTRLYHEADKTYMLREYTSRESKIANLMHVPPSLFTEPNEISQYLPIKEAVCEKLVFPERIDPNPVDSQSTPSE
notes: TIPRL, full length, for biochemical experiments; Cloned into pQLinkH; His6-tag removed by TEV protease; also called WT TIPRL; source: E. coli BL21 (DE3), purified (Ni-NTA, Source 15Q, Superdex 200)
